Values quoted from earlier work, collected in patent publication US11590205B2, “Methods for producing stable therapeutic glucagon formulations in aprotic polar solvents” (Xeris Pharmaceuticals, Inc., priority 2015, dated 2023).

Conditions: aqueous

**Q.** For glucagon, which “solubility at neutral pH” value is on record?
**A.** Its value is “essentially insoluble”.
